In JP2013230152A:

Legend:
遺伝子型3aの単離物のE1E2 = test: cell-based or functional assay
[1] = biological target: 遺伝子型5の単離物のE1E2(MAb AP33反応性); test: cell-based or functional assay
[2] = biological target: H77 E1E2突然変異型G418A (Hepatitis C virus genotype 1a, strain H77) (UniProt P27958); test: GNA capture EIA, mutant E1E2 from HEK293T cells
[3] = biological target: H77 E1E2突然変異型L413A (Hepatitis C virus genotype 1a, strain H77) (UniProt P27958); test: GNA capture EIA, mutant E1E2 from HEK293T cells
[4] = biological target: H77 E1E2突然変異型N415A (Hepatitis C virus genotype 1a, strain H77) (UniProt P27958); test: GNA capture EIA, mutant E1E2 from HEK293T cells
[5] = biological target: H77 E1E2突然変異型Q412A (Hepatitis C virus genotype 1a, strain H77) (UniProt P27958); test: GNA capture EIA, mutant E1E2 from HEK293T cells
[6] = biological target: H77 E1E2突然変異型W420A (Hepatitis C virus genotype 1a, strain H77) (UniProt P27958); test: GNA capture EIA, mutant E1E2 from HEK293T cells
[7] = biological target: 412〜423分枝ペプチド (Hepatitis C virus); test: antibody titration on the 412-423 branched peptide (Figure 10)

Substance: モノクローナル抗体AP33 (antibody)
- IC 50(HCV pp 中和) (遺伝子型3aの単離物のE1E2): 22 µg/mL
- IC 50(HCV pp 中和) [1]: 0.6 µg/mL
- decrease of binding compared with wild type [2]: > 75%
- decrease of binding compared with wild type [3]: > 75%
- decrease of binding compared with wild type [4]: > 75%
- increase of binding compared with wild type H77 [5]: 50%
- decrease of binding compared with wild type [6]: > 75%
- concentration for 50% binding, how much lower than that of MAb 3/11 [7]: > 10
